Patent US10806804B2, “Compounds having RD targeting motifs and methods of use thereof” (Washington University, priority 2015, dated 2020)
Positions of bridges follow the written chain, without caps; N, C: chain ends. Non-standard residues stand in square brackets, D forms with d. Residues, ends and D or L forms follow the SMILES beside them. Primed or numbered codes have the meaning given here. *: point of attachment. Cypate = CC1(C)C(/C=C/C=C/C=C/C=C2/N(CCC(=O)*)c3ccc4ccccc4c3C2(C)C)=[N+](CCC(=O)O)c2ccc3ccccc3c21; Cypate′ = not defined here

Experiments:
4T1 luc = assay: in vivo tumor targeting / fluorescence imaging of probes compared with LS301; parameters: species or system Balb/c; conditions: Tyr adjacent to the cypate
Protocol: FIG. 5 depicts images showing LS838 for fluorescence and nuclear (PET and or SPECT) imaging. 4T1 luc in Balb/c; 100 μl of 50 μM LS838.
FIG. 6 depicts the distribution of LS838 in tissue at 24 hours.
A variety of probes which have similar sequence compared to LS301 were designed and prepared (Table 1). The probes have different peptide sequences, D-, L-amino acid variations or different groups on C-terminus. The sequences of the probes were tested by LC-MS and the spectroscopy properties were recorded. The performances of the tumor targeting abilities were also tested in vivo. […] It was unexpected that LS838 would be brighter relative to LS301 and it is unknown to us why it does. However, the enhanced brightness allows the use of smaller amounts of material to achieve the same uptake kinetics and accumulation as LS301. FIG. 5 depicts the accumulation of LS838 in vivo and FIG. 6 graphically quantifies the intensity of LS838 in various organs. […] LS838 labeled can be labeled with radionuclides such as radio-iodine, bromine, or fluorine for combined optical and nuclear imaging.

albumin [1] = target: T1, albumin (Homo sapiens, UniProt P02768); conditions: carbocyanine dyes, previous study; cited from earlier work
PDAC [2] = tested on: PDAC; parameters: species or system mice; conditions: mouse, in vivo
From the text: To overcome this problem, the use of peptides as a tumor-trapping mechanism was explored. The highly reducing environment of tumor cells is known to reduce disulfide bonds to thiols, which can trans-thiolate with cysteine-containing intracellular proteins to trap the molecular probe. Therefore, a variety of disulfide-containing peptides were conjugated to cypate and the compounds were screened in mice with advanced stage PDAC. […] Replacement of the D-Cysteine with the natural L-Cysteine residue abrogates this retention.

pancreas tumor cells = conditions: in vivo
[3] = in vivo
From the text: While this is not a problem in the proposed laparoscopy, the excretion route to the kidneys can be altered by conjugating positively charged moieties (—^+NMe3) or nonionic groups (e.g. PEG) to the free carboxylic acid group of cypate. […] In the unlikely event that the cyanine dyes are photo-unstable, they will be replaced with NIR pyrrolopyrrole cyanine dyes (PPCy), which are highly photostable and have exceptionally high fluorescence quantum yields (up to 80%).

albumin [4] = target: T1, albumin; assay: binding of carbocyanine dyes and LS838 to albumin (binding constant K)
From the text: The hypothesis is that the binding of cypate to albumin facilitates the internalization of LS838 in PDAC/PanIN lesions. In a previous study, the binding of some carbocyanine dyes to albumin was compared. […] It was also shown that conjugation of peptides to the dyes decreases the K by a factor of ˜10. Using the same method, we determined the K value of LS838 to be 86,000 M^−1.

tumor cells = assay: NIR fluorescence microscopy of uptake and trafficking in cells; assay type: cell-based; conditions: dye alone
Protocol: FIG. 8A and FIG. 8B depict uptake of LS838 in 4T1 luc cells showing internalization of the probe in the cells at 1 h (FIG. 8A) and 4 h (FIG. 8B) post incubation. Most cells show localization in the lysosomes at early time points, but the punctate fluorescence became more diffuse at 24 h, indicating translocation to the cytosol. Uptake in the mitochondria was negligible. Color scheme: cyan, Mitotracker; green, lysotracker; and red, LS838. (FIG. 8C) Internalization of LS838 in cells was inhibited by Filipinin, an inhibitor of albumin endocytosis via the gp60 pathway. A similar inhibition was observed when Alexa-680 dye labeled albumin (BSA; blue) was mixed with LS838.
At early time points, LS838 is largely in the lysosomes, but it translocates to the cytosol in a time-dependent manner. […]
Aggresomes are microtubule-catalyzed aggregates of […] that are used to degrade particularly stable and aggregated proteins. […] It will be evaluated if tumors have a lower ability to form aggresomes because of microtubule dysfunction, leading to prolonged retention in tumor cells compared to normal cells. If LS838 induces aggresome formation in tumor cells, but not fibroblasts will first be determined. […] It will also be determined if aggresomes form in vivo using a literature method. […] Aggresome formation will be determined by staining muscle, skin, and tumors for anti-ubiquitin protein. […]

PDAC [5] = assay: in vivo uptake/contrast in PDAC relative to uninvolved pancreas
From the text: A similar trend is observed in vivo, where preferential uptake in PDAC relative to uninvolved pancreas is […]. […] Permutation of the arginine-aspartic acid sequence results in a loss of PDAC-selective uptake. It has been shown that cypate binds to the hydrophobic pockets of albumin, irrespective of the source (human, murine, or bovine). […] Thus, the primary goal of this study is to determine the role of the peptide in tumor cell internalization or retention. Based on preliminary data, this question can be addressed by preparing the following cypate-labeled peptides (underlined amino acids are changes made to LS838): […]

T1 sequence (P02768 25-609, species assumed): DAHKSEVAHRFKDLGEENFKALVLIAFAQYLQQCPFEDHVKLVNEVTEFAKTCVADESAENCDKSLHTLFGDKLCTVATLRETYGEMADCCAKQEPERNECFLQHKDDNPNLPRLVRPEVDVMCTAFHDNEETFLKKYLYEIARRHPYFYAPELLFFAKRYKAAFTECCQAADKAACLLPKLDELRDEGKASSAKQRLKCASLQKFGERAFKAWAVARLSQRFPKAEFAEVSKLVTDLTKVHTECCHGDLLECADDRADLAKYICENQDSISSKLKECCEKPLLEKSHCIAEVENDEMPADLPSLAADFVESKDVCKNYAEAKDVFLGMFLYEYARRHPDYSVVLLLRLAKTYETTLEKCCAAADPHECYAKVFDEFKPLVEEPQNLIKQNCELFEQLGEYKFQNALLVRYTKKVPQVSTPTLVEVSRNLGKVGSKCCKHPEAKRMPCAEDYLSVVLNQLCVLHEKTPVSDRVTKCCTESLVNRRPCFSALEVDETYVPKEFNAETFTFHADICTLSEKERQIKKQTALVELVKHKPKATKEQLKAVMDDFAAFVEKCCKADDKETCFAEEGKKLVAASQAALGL

With “Tyr-Cypate-Cyclo(DCys-Gly-Arg-Asp-Ser-Pro-Cys)-Lys-NH2 ({Tyr-Cypate′}-[dC]GRDSPCK-NH2; disulfide 1-7 (inferred)) [LS758]” the “retention in tumors after in vivo administration” value (4T1 luc) was “rapid loss of retention in tumors”.

For `CC1(C)C(/C=C/C=C/C=C/C=C2\N(CCCCS(=O)(=O)O)c3ccc4ccccc4c3C2(C)C)=[N+](CCCCS(=O)(=O)[O-])c2ccc3ccccc3c21` [ICG, indocyanine green], the “binding constant (K) to albumin” value (albumin [1]) is given as 554,000 M^−1.

In the case of `CC1(C)C(/C=C/C=C/C=C/C=C2/N(CCC(=O)N[C@@H](Cc3ccc(O)cc3)C(=O)N[C@@H]3CSSC[C@@H](C(=O)N[C@@H](CCCCN)C(=O)O)NC(=O)[C@@H]4CCCN4C(=O)[C@H](CO)NC(=O)[C@H](CC(=O)O)NC(=O)[C@H](CCCNC(=N)N)NC(=O)CNC3=O)c3ccc4ccccc4c3C2(C)C)=[N+](CCC(=O)O)c2ccc3ccccc3c21` [LS747, Cypate-Tyr-Cyclo(DCys-Gly-Arg-Asp-Ser-Pro-Cys)-Lys-OH] (Cypate-Y[dC]GRDSPCK-OH; disulfide 2-8), the “retention in tumors after in vivo administration” value (4T1 luc) is reported as “rapid loss of retention in tumors”.

For `CC1(C)C(/C=C/C=C/C=C/C=C2/N(CCC(=O)N[C@@H]3CSSC[C@@H](C(=O)N[C@@H](Cc4ccc(O)cc4)C(=O)O)NC(=O)[C@@H]4CCCN4C(=O)[C@H](CO)NC(=O)[C@H](CC(=O)O)NC(=O)[C@H](CCCNC(=N)N)NC(=O)CNC3=O)c3ccc4ccccc4c3C2(C)C)=[N+](CCC(=O)O)c2ccc3ccccc3c21` [LS838, Cypate-Cyclo(DCys-Gly-Arg-Asp-Ser-Pro-Cys)-Tyr-OH] (Cypate-[dC]GRDSPCY-OH; disulfide 1-7), the “selective retention in tumors (duration)” value (PDAC [2]) was “over 48 h”, the “time remaining primarily in the tumor cells relative to non-tumor cells” value (pancreas tumor cells) was “up to 100 h” and the “time to internalization in the pancreas” value (pancreas tumor cells) was at most 1 h. For the same molecule, the clearance route [3] was “clears through the liver” and the Kd (albumin [4]) was 11.6 µM.

In the case of `CC1(C)C(/C=C/C=C/C=C/C=C2/N(CCC(=O)O)c3ccc4ccccc4c3C2(C)C)=[N+](CCC(=O)[O-])c2ccc3ccccc3c21` [cypate], the “efflux from tumor cells after transfer to new culture medium” value (tumor cells) is given as “rapidly effluxes”, the “preferential uptake in PDAC relative to uninvolved pancreas” value (PDAC [5]) is given as “not observed” and the “binding constant (K) to albumin” value (albumin [1]) is given as 556,000 M^−1.
